The values below come from the supplement of paper PMC9112550, “Optimization of the antimicrobial peptide Bac7 by deep mutational scanning” (BMC Biology, 2022).

The data set concerns Escherichia coli TOP10. The data set can be described thus: shrunken log2 fold change of peptide-encoding DNA abundance (4.5 h post-induction vs induction); higher = less antimicrobial activity (less host growth inhibition). Particulars: time post-induction: 4.5 h; library: site-saturation at positions 5, 18, 19, 20.
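Note: peptides expressed intracellularly from a pBAD plasmid library in pooled LB shake-flask culture, induced with 0.3% L-arabinose, DNA abundance read by NGS, three biological replicates, DESeq2 with apeglm shrinkage.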

For RRIRSRPPRLPRPRPRPMDEPRP, the “shrunken log2 fold change” value stood at 0.0216.
With RRIRARPPRLPRPRPRPENAPRP, the “shrunken log2 fold change” value was found to be 0.687.
The same measure for RRIRPRPPRLPRPRPRPKNDPRP: -0.108.
The same measure for RRIRCRPPRLPRPRPRPLIPPRP: -0.366; for RRIRLRPPRLPRPRPRPIKYPRP: 0.0258.
RRIRRRPPRLPRPRPRPQEDPRP: the “shrunken log2 fold change” value is 0.108.
In the case of RRIRWRPPRLPRPRPRPFMLPRP it was -0.174; in that of RRIRVRPPRLPRPRPRPSTYPRP, -0.288; in that of RRIRFRPPRLPRPRPRPNFHPRP, -0.218.
As to RRIRFRPPRLPRPRPRPVNAPRP, the “shrunken log2 fold change” value worked out at 0.135.
In the case of RRIRLRPPRLPRPRPRPDAWPRP it was 0.457; in that of RRIRERPPRLPRPRPRPIQVPRP, -0.0549; in that of RRIRIRPPRLPRPRPRPDHWPRP, 0.0629.
RRIRRRPPRLPRPRPRPAEQPRP: the “shrunken log2 fold change” value turned out to be 0.275.
With RRIRWRPPRLPRPRPRPDWYPRP, the “shrunken log2 fold change” value is -0.268.
For RRIRRRPPRLPRPRPRPPVIPRP, the “shrunken log2 fold change” value is -0.139.
As to RRIRERPPRLPRPRPRPYDLPRP, the “shrunken log2 fold change” value is -0.169.
The same measure for RRIRVRPPRLPRPRPRPPGPPRP: 0.533; for RRIRIRPPRLPRPRPRPFAPPRP: 1.3; for RRIRCRPPRLPRPRPRPLPGPRP: 0.262.
In the case of RRIRIRPPRLPRPRPRPCLKPRP, the “shrunken log2 fold change” value is -0.16.
RRIRTRPPRLPRPRPRPTEQPRP: the “shrunken log2 fold change” value stood at 0.303.
With RRIRRRPPRLPRPRPRPPRRPRP, the “shrunken log2 fold change” value was 1.34.
In the case of RRIRIRPPRLPRPRPRPPLTPRP it was -0.0194; in that of RRIRFRPPRLPRPRPRPDNKPRP, -0.853.
On to RRIRTRPPRLPRPRPRPTHHPRP, for which the “shrunken log2 fold change” value was -0.0136.
In the case of RRIRWRPPRLPRPRPRPQQSPRP it was -0.0166; in that of RRIRMRPPRLPRPRPRPDIPPRP, -0.0804.
On to RRIRTRPPRLPRPRPRPTNTPRP, for which the “shrunken log2 fold change” value is -0.536.
For RRIRNRPPRLPRPRPRPLYHPRP, the “shrunken log2 fold change” value is -0.941.
The same measure for RRIRPRPPRLPRPRPRPGEAPRP: 0.426; for RRIRGRPPRLPRPRPRPAWIPRP: 0.347; for RRIRARPPRLPRPRPRPDTRPRP: 0.0596.
Consider RRIRRRPPRLPRPRPRPEQYPRP, for which the “shrunken log2 fold change” value was 0.17.
With RRIRARPPRLPRPRPRPMSWPRP, the “shrunken log2 fold change” value was determined as 0.399.
Turning to RRIRDRPPRLPRPRPRPKCTPRP, the “shrunken log2 fold change” value is 0.0239.
As to RRIRVRPPRLPRPRPRPRHQPRP, the “shrunken log2 fold change” value is -0.138.
The same measure for RRIRMRPPRLPRPRPRPGGPPRP: 0.119.
For RRIRHRPPRLPRPRPRPMTSPRP, the “shrunken log2 fold change” value was -0.491.
Turning to RRIRVRPPRLPRPRPRPHFVPRP, the “shrunken log2 fold change” value was -0.0262.
As to RRIRTRPPRLPRPRPRPIFQPRP, the “shrunken log2 fold change” value was -0.192.
RRIRRRPPRLPRPRPRPGIFPRP: the “shrunken log2 fold change” value is -0.174.
Take RRIRNRPPRLPRPRPRPIRNPRP: the “shrunken log2 fold change” value is -0.422.
Take RRIRWRPPRLPRPRPRPIQGPRP: the “shrunken log2 fold change” value is 0.265.
RRIRMRPPRLPRPRPRPCAQPRP: the “shrunken log2 fold change” value was -0.0823.
Turning to RRIRWRPPRLPRPRPRPGQQPRP, the “shrunken log2 fold change” value was -0.17.
Take RRIRARPPRLPRPRPRPCSMPRP: the “shrunken log2 fold change” value worked out at 0.00269.
Turning to RRIRMRPPRLPRPRPRPAWPPRP, the “shrunken log2 fold change” value was 0.896.
In the case of RRIRYRPPRLPRPRPRPMPSPRP, the “shrunken log2 fold change” value is 0.0101.
Turning to RRIRMRPPRLPRPRPRPLFHPRP, the “shrunken log2 fold change” value was -0.0668.
For RRIRYRPPRLPRPRPRPDTLPRP, the “shrunken log2 fold change” value was -0.195.
For the sequence RRIRQRPPRLPRPRPRPTPMPRP, the “shrunken log2 fold change” value was 2.6.
With RRIRWRPPRLPRPRPRPHQEPRP, the “shrunken log2 fold change” value was 0.0101.
With RRIRRRPPRLPRPRPRPWPPPRP, the “shrunken log2 fold change” value stood at 0.514.
In the case of RRIRFRPPRLPRPRPRPPSHPRP it was 0.123; in that of RRIRTRPPRLPRPRPRPIDWPRP, 0.042; in that of RRIRVRPPRLPRPRPRPVYPPRP, -0.389.
In the case of RRIRARPPRLPRPRPRPSNPPRP, the “shrunken log2 fold change” value is -0.0677.
Regarding RRIRNRPPRLPRPRPRPKVVPRP, the “shrunken log2 fold change” value was 0.0279.
Regarding RRIRTRPPRLPRPRPRPDKRPRP, the “shrunken log2 fold change” value is -0.0389.
The same measure for RRIRPRPPRLPRPRPRPNRNPRP: -0.352.
Regarding RRIRGRPPRLPRPRPRPNWPPRP, the “shrunken log2 fold change” value was 0.306.
RRIRLRPPRLPRPRPRPAQNPRP: the “shrunken log2 fold change” value is 0.57.
On to RRIRYRPPRLPRPRPRPCQMPRP, for which the “shrunken log2 fold change” value was -0.255.
RRIRYRPPRLPRPRPRPTDRPRP: the “shrunken log2 fold change” value is -0.144.
Take RRIRERPPRLPRPRPRPCQPPRP: the “shrunken log2 fold change” value was found to be 0.0208.
In the case of RRIRPRPPRLPRPRPRPPGSPRP it was 0.0805.
RRIRSRPPRLPRPRPRPFWLPRP: the “shrunken log2 fold change” value amounted to 0.26.
With RRIRQRPPRLPRPRPRPCHLPRP, the “shrunken log2 fold change” value was -0.0134.
For RRIRERPPRLPRPRPRPKRHPRP, the “shrunken log2 fold change” value stood at 0.0422.
As to RRIRMRPPRLPRPRPRPSLAPRP, the “shrunken log2 fold change” value stood at 0.566.
RRIRYRPPRLPRPRPRPTDIPRP: the “shrunken log2 fold change” value was -0.031.
Turning to RRIRCRPPRLPRPRPRPDTNPRP, the “shrunken log2 fold change” value is -0.285.
RRIRMRPPRLPRPRPRPALFPRP: the “shrunken log2 fold change” value was 0.356.
The same measure for RRIRGRPPRLPRPRPRPFNFPRP: 0.0755.
Turning to RRIRMRPPRLPRPRPRPKHHPRP, the “shrunken log2 fold change” value turned out to be 0.148.
As for RRIRMRPPRLPRPRPRPNAMPRP, the “shrunken log2 fold change” value was found to be 0.16.
In the case of RRIRYRPPRLPRPRPRPCMHPRP, the “shrunken log2 fold change” value is -0.351.
For the sequence RRIRWRPPRLPRPRPRPRGRPRP, the “shrunken log2 fold change” value worked out at 0.704.
RRIRDRPPRLPRPRPRPICFPRP: the “shrunken log2 fold change” value came to 0.227.
RRIRSRPPRLPRPRPRPKKVPRP: the “shrunken log2 fold change” value was -0.00648.
Take RRIRTRPPRLPRPRPRPNFCPRP: the “shrunken log2 fold change” value is -0.126.
In the case of RRIRSRPPRLPRPRPRPYKEPRP, the “shrunken log2 fold change” value was -0.0146.
Turning to RRIRVRPPRLPRPRPRPLDDPRP, the “shrunken log2 fold change” value was determined as 0.00726.
With RRIRSRPPRLPRPRPRPLEKPRP, the “shrunken log2 fold change” value is -0.0565.
With RRIRPRPPRLPRPRPRPMVYPRP, the “shrunken log2 fold change” value is -0.228.
RRIRIRPPRLPRPRPRPMVSPRP: the “shrunken log2 fold change” value was -0.044.
For the sequence RRIRMRPPRLPRPRPRPDNIPRP, the “shrunken log2 fold change” value is -0.184.
On to RRIRVRPPRLPRPRPRPPFTPRP, for which the “shrunken log2 fold change” value stood at 0.955.
RRIRHRPPRLPRPRPRPKKGPRP: the “shrunken log2 fold change” value is -0.0679.
RRIRDRPPRLPRPRPRPSPMPRP: the “shrunken log2 fold change” value is 0.136.
As for RRIRIRPPRLPRPRPRPLHMPRP, the “shrunken log2 fold change” value is -0.571.
In the case of RRIRTRPPRLPRPRPRPCVGPRP, the “shrunken log2 fold change” value was -0.013.
For RRIRIRPPRLPRPRPRPVGCPRP, the “shrunken log2 fold change” value amounted to 0.166.
Consider RRIRQRPPRLPRPRPRPRCNPRP, for which the “shrunken log2 fold change” value is -0.515.
Take RRIRVRPPRLPRPRPRPMEEPRP: the “shrunken log2 fold change” value worked out at 0.215.
In the case of RRIRIRPPRLPRPRPRPDMEPRP, the “shrunken log2 fold change” value amounted to 0.0763.
For RRIRQRPPRLPRPRPRPWDPPRP, the “shrunken log2 fold change” value is -0.327.
On to RRIRSRPPRLPRPRPRPNYMPRP, for which the “shrunken log2 fold change” value was -0.756.
Take RRIRPRPPRLPRPRPRPCLNPRP: the “shrunken log2 fold change” value was -0.35.
In the case of RRIRHRPPRLPRPRPRPFTPPRP, the “shrunken log2 fold change” value is -0.484.
Consider RRIRERPPRLPRPRPRPITFPRP, for which the “shrunken log2 fold change” value was -0.338.
Regarding RRIRKRPPRLPRPRPRPRCIPRP, the “shrunken log2 fold change” value is -0.187.
Turning to RRIRVRPPRLPRPRPRPNFFPRP, the “shrunken log2 fold change” value is 0.0488.
As to RRIRQRPPRLPRPRPRPDLEPRP, the “shrunken log2 fold change” value is -0.0293.
Consider RRIRIRPPRLPRPRPRPCWRPRP, for which the “shrunken log2 fold change” value stood at 0.157.
As to RRIRDRPPRLPRPRPRPAVTPRP, the “shrunken log2 fold change” value is -0.0403.
On to RRIRMRPPRLPRPRPRPTSNPRP, for which the “shrunken log2 fold change” value is 0.00211.
Consider RRIRKRPPRLPRPRPRPFAKPRP, for which the “shrunken log2 fold change” value came to 0.0238.
Consider RRIRARPPRLPRPRPRPAEWPRP, for which the “shrunken log2 fold change” value was found to be 0.245.
Consider RRIRRRPPRLPRPRPRPSQTPRP, for which the “shrunken log2 fold change” value was 0.294.
The same measure for RRIRYRPPRLPRPRPRPRCHPRP: -0.512.
In the case of RRIRYRPPRLPRPRPRPECQPRP it was 0.0129; in that of RRIRTRPPRLPRPRPRPWFPPRP, -0.735; in that of RRIRARPPRLPRPRPRPDVWPRP, 0.342.
Turning to RRIRQRPPRLPRPRPRPRHSPRP, the “shrunken log2 fold change” value is -0.185.
For RRIRNRPPRLPRPRPRPCFEPRP, the “shrunken log2 fold change” value stood at 0.00026.
Regarding RRIRPRPPRLPRPRPRPTSIPRP, the “shrunken log2 fold change” value is -0.375.
For the sequence RRIRWRPPRLPRPRPRPNCRPRP, the “shrunken log2 fold change” value stood at 0.0177.
Take RRIRLRPPRLPRPRPRPPPPPRP: the “shrunken log2 fold change” value was 1.55.
In the case of RRIRVRPPRLPRPRPRPLGVPRP, the “shrunken log2 fold change” value was -0.116.
With RRIRERPPRLPRPRPRPDMHPRP, the “shrunken log2 fold change” value was -0.0138.
In the case of RRIRERPPRLPRPRPRPVLCPRP, the “shrunken log2 fold change” value turned out to be 0.0605.
For the sequence RRIRGRPPRLPRPRPRPKQKPRP, the “shrunken log2 fold change” value is -0.0523.
Consider RRIRPRPPRLPRPRPRPKDSPRP, for which the “shrunken log2 fold change” value was -0.157.
